Assay results from patent US20220176020A1, “Improved Bone Implant Matrix Comprising Proline-Rich Peptide And Method Of Preparing The Same” (Industrie Biomediche Insubri S.A., priority 2019, published 2022).
No end group written: not given here. *: point of attachment. FITC = O=C1OC2(c3ccc(O)cc3Oc3cc(O)ccc32)c2ccc(NC(=S)*)cc21

Key:
MC3T3-E1 cells = assay: Real-time PCR of osteogenic marker mRNA levels (COL1A1, ALP, OC, VEGFA); type: cell-based, murine; details: FIG. 10; for COL1A1 mRNA levels: after 14 days; for OC level: time at which highest/max is reached: measured at 1, 3, 7 and 14 days
Experimental: The cells assessed was murine pre-osteoblastic cell line (MC3T3-E1) obtained from the German Collection of Micro-organisms and Cell Cultures (DSMC, Braunschweig, Germany). MC3T3-E1 cells were routinely cultured at 37° C. in a humidified atmosphere of 5% CO2, and maintained in α-MEM supplemented with 10% foetal calf serum (FCS) and antibiotics (50 IU penicillin/ml and 50 μg streptomycin/ml). Cells were subcultured 1:4 before reaching confluence using PBS and trypsin/EDTA. All experiments were performed in the same passage of the MC3T3-E1 cells.
Then, cells were maintained static at 37° C. in a humidified atmosphere of 5% CO2 for up to 14 days. The same number of cells were cultured in parallel in plastic in all the experiments.
Total RNA was isolated with Tripure (Roche Diagnostics) and RNA was quantified using a spectrophotometer set at 260 nm. Real-time PCR was performed for two reference genes and several target gene (Table) The same amount of total RNA from each sample (370 ng) was reverse transcribed to cDNA at 37° C. for 60 min in a final volume of 20 μl, using High Capacity RNA to cDNA kit (Applied Biosystems). Each cDNA was diluted 1/7 and these dilutions are used to carry on the quantitative PCR.
Real-time PCR was performed in the Lightcycler 480® (Roche Diagnostics, Germany) using SYBR green detection. For each reaction, 7 μl of Lightcycler-FastStart DNA MasterPLUS SYBR Green I, 0.5 μM of sense and antisense specific primer and 3 μl of the cDNA dilution in a final volume of 10 μl was added. The normal amplification program consisted of a preincubation step for denaturation of the template cDNA (95° C.), followed by 45 cycles consisting of a denaturation step (95° C.), an annealing step (60° C., for all expect for ALP and osterix, which were 65° C. and 68° C. respectively) and an extension step (72° C.). Real-time efficiencies were calculated from the given slopes in the LightCycler 480 software using serial dilutions.
Relative quantification after PCRWas calculated by dividing the concentration of the target gene in each sample by the mean of the concentration of the two reference genes (Housekeeping genes) in the same sample using the advanced relative quantification method provided by the LightCycler 480 analysis software version 1.5 (Roche Diagnostics, Mannheim, Germany).

[1] = Release profile of FITC-labelled PRP from SBP in 10 ml purified water; type: physicochemical; details: for period of highest release rate / release of peptide: 10 ml purified water; for release of peptide: FITC on C- or N-terminal
Experimental: For 4 days the solution was analysed every 24 h using UV-vis, then 48 h after, and finally […] after. The water was changed every time to better simulate in vivo conditions, maximizing the drive force. Having a FITC+H2O calibration curve, the absorbance could be related to the concentration. Using a known quantity of water, the mass released could be derived from the measured concentration.
For a proper FITC release profile, also samples of bone implant matrix, identified as “SB”, reproduced according to example 3 were studied, since other components of the “SB” is likely to be released, the blank used for the spectroscopy was based on a water+“SB” solution. […] To identify the presence of “PRP” in the aqueous solution, FITC molecules were either attached to the C- or N-terminal of the peptide before loading.
Calibration was used to derive the concentration of FITC released in the water solution at the given time points. With a known quantity of water used at a given time, the mass released can be derived.
Best fit plots where made using the inbuild best-fit function of Graph (Software) assuming both a logarithmic and power function. In general, the logarithmic functions were more accurate (R^2-values closer to 1).

Row | Substance | COL1A1 mRNA levels (MC3T3-E1 cells) | OC level: time at which highest/max is reached (MC3T3-E1 cells) | period of highest release rate [1] | release of peptide ([1]; after 14 days) | initial release ([1]; FIG. 2, comparison P2 vs P5) | release rate ([1]; after 14 days, FIG. 2)
1 | PLV PSS PLV PCC PLV PCC PSP PLPP (PLVPSSPLVPCCPLVPCCPSPPLPP; proline rich peptide) [P5, artificial Proline-Rich Peptide] | drop | fairly stable | highest release rate the two first days | 8.75 to 9.90 µg |  | 
2 | PLV PSQ PLV PSQ PLV PSQ PQP PLPP (PLVPSQPLVPSQPLVPSQPQPPLPP; proline rich peptide) [P2, artificial Proline-Rich Peptide] |  |  | highest release rate the two first days | 11.75 to 14.01 µg | higher initial release than P5 | 
3 | PHQ PMQ PQP PVH PMQ PLP PQP PLPP (PHQPMQPQPPVHPMQPLPPQPPLPP; proline rich peptide) [P6, artificial Proline-Rich Peptide] | raised significantly | 7 days |  |  |  | 
4 | P2N: PRP version P2 (SEQ ID 4) with FITC attached on the N terminal ({FITC}-PLVPSQPLVPSQPLVPSQPQPPLPP) |  |  |  |  |  | jump in release rate
